Assay results published in patent US20250042956A1 (University of California, published 2025).
Values belong to the binder of their own block, whether it stands above or below them.

Tests used:
[1] = biological target: T1, AT3G49850.1 TRB3 (Arabidopsis thaliana, UniProt Q9M2X3 1-295); assay: X-link IP-MS
T1 construct: Endogenous protein found by mass spectrometry
T1 sequence: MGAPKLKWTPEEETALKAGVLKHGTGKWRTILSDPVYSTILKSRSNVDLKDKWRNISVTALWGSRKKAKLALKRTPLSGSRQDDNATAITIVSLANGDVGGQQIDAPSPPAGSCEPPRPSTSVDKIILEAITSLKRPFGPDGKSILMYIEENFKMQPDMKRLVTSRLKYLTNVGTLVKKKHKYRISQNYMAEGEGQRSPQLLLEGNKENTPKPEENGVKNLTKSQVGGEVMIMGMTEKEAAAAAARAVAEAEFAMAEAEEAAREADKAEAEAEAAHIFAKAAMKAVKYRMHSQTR

[2] = biological target: T2, AT5G51230.1 EMF2 (Arabidopsis thaliana, UniProt Q8L6Y4 1-631); assay: X-link IP-MS
T2 construct: Endogenous protein found by mass spectrometry; also called EMBRYONIC FLOWER 2
T2 sequence (looked up): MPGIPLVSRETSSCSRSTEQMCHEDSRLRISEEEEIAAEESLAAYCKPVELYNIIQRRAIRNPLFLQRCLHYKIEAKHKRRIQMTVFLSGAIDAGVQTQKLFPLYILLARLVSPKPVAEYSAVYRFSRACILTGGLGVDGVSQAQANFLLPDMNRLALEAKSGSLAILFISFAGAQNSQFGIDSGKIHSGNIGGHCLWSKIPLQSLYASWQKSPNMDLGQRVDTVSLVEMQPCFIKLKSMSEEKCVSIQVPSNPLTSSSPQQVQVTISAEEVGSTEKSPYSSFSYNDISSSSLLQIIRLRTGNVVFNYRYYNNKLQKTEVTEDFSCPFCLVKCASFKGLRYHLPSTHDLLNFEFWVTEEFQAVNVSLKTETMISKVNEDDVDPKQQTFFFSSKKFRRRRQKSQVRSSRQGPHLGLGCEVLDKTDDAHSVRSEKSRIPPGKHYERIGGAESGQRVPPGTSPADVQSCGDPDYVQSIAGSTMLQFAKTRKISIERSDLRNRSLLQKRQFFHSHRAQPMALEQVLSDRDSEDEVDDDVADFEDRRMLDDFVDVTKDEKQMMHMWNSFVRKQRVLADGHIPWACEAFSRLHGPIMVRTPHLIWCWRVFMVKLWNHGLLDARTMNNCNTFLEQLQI

[3] = biological target: T3, AT2G17540.2 TRBIP2 (Arabidopsis thaliana); assay: X-link IP-MS
T3 construct: Endogenous protein found by mass spectrometry
T3 chain: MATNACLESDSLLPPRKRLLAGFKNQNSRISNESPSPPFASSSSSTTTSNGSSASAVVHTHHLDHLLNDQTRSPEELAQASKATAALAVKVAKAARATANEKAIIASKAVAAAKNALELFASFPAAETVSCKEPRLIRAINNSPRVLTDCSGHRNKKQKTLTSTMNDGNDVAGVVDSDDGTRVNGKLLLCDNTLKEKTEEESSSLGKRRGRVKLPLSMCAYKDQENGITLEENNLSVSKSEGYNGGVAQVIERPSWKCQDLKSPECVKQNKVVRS

[4] = biological target: T4, AT2G23380.1 CLF (Arabidopsis thaliana, UniProt P93831 1-902); assay: X-link IP-MS
T4 construct: Endogenous protein found by mass spectrometry; also called CURLY LEAF
T4 sequence (looked up): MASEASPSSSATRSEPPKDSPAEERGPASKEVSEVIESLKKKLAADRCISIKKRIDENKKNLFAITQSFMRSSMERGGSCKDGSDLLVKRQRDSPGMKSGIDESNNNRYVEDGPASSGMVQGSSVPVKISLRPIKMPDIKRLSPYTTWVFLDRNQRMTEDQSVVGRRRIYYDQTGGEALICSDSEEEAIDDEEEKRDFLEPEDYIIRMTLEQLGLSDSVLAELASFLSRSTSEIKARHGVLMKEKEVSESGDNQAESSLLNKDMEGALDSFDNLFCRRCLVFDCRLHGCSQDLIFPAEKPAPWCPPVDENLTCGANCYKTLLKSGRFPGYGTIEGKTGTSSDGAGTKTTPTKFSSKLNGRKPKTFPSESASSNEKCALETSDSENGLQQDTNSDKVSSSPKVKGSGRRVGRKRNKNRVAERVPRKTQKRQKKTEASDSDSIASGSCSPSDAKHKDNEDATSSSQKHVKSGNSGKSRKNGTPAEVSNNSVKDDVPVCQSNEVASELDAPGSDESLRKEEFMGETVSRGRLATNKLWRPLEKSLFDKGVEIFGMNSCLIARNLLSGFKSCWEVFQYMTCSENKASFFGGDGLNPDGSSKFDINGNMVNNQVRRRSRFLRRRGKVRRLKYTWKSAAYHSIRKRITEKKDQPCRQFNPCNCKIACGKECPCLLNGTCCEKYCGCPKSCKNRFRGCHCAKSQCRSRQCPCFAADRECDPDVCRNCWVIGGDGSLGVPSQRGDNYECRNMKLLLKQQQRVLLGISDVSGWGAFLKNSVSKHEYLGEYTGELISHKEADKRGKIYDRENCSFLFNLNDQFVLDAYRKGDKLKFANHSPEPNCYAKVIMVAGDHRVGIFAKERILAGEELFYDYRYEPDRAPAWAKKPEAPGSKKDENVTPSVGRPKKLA

[5] = biological target: T5, AT4G35510.1 TRBIP1 (Arabidopsis thaliana); assay: X-link IP-MS
T5 construct: Endogenous protein found by mass spectrometry
T5 chain: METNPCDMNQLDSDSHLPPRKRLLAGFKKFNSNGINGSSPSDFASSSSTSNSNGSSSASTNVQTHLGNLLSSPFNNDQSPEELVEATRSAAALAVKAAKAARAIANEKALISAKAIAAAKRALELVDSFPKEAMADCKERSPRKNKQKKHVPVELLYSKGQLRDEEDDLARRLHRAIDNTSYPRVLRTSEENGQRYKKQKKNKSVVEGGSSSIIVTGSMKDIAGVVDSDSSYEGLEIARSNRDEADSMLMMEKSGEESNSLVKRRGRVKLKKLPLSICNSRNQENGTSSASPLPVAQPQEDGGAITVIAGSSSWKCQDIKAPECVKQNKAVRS

[6] = biological target: T1, AT3G49850.1 TRB3; assay: IP-MS rep 2
Procedure: (§1) The method of IP-MS used in this Example has been described in a recent paper (see e.g., Xue, Nat. Comm., 2021). Ten grams of unopened floral buds from Col-0 wild type and FLAG-tag transgenic plants, including PHD1, MOM1, AIPP3, MOM2, MORC6, PIAL2, TRB1, TRB2, TRB3, JMJ14, HD2A, HD2B, and ELF7 were collected and ground into fine powder with liquid nitrogen. These samples were resuspended with 25 mL IP buffer and homogenized until lump-free by dounce homogenizer. The lysate was filtered through Miracloth and incubated with 250 μL anti-FLAG M2 magnetic beads (Sigma) at 4° C. for 2 hours. The magnetic beads were washed with IP buffer and eluted with TBS containing 250 μg/mL 3×FLAG peptides. The eluted proteins were precipitated with trichloroacetic acid (Sigma) and subject to MS analyses as described previously (see e.g., Xue, Nat. Comm., 2021).

[7] = biological target: T2, AT5G51230.1 EMF2; assay: IP-MS rep 2
Procedure: as §1

[8] = biological target: T3, AT2G17540.2 TRBIP2; assay: IP-MS rep 2
Procedure: as §1

[9] = biological target: T4, AT2G23380.1 CLF; assay: IP-MS rep 2
Procedure: as §1

[10] = biological target: T5, AT4G35510.1 TRBIP1; assay: IP-MS rep 2
Procedure: as §1

[11] = biological target: T1, AT3G49850.1 TRB3; assay: IP-MS rep 1
Procedure: as §1

[12] = biological target: T2, AT5G51230.1 EMF2; assay: IP-MS rep 1
Procedure: as §1

[13] = biological target: T3, AT2G17540.2 TRBIP2; assay: IP-MS rep 1
Procedure: as §1

[14] = biological target: T4, AT2G23380.1 CLF; assay: IP-MS rep 1
Procedure: as §1

[15] = biological target: T5, AT4G35510.1 TRBIP1; assay: IP-MS rep 1
Procedure: as §1

[16] = biological target: T6, AT4G20400.1 JMJ14 (Arabidopsis thaliana, UniProt Q8GUI6 1-954); assay: X-link IP-MS
T6 construct: Endogenous protein found by mass spectrometry; also called JUMONJI 14

[17] = biological target: T6, AT4G20400.1 JMJ14; assay: IP-MS rep 2
Procedure: as §1

[18] = biological target: T6, AT4G20400.1 JMJ14; assay: IP-MS rep 1
Procedure: as §1

T6 sequence (Q8GUI6 whole entry): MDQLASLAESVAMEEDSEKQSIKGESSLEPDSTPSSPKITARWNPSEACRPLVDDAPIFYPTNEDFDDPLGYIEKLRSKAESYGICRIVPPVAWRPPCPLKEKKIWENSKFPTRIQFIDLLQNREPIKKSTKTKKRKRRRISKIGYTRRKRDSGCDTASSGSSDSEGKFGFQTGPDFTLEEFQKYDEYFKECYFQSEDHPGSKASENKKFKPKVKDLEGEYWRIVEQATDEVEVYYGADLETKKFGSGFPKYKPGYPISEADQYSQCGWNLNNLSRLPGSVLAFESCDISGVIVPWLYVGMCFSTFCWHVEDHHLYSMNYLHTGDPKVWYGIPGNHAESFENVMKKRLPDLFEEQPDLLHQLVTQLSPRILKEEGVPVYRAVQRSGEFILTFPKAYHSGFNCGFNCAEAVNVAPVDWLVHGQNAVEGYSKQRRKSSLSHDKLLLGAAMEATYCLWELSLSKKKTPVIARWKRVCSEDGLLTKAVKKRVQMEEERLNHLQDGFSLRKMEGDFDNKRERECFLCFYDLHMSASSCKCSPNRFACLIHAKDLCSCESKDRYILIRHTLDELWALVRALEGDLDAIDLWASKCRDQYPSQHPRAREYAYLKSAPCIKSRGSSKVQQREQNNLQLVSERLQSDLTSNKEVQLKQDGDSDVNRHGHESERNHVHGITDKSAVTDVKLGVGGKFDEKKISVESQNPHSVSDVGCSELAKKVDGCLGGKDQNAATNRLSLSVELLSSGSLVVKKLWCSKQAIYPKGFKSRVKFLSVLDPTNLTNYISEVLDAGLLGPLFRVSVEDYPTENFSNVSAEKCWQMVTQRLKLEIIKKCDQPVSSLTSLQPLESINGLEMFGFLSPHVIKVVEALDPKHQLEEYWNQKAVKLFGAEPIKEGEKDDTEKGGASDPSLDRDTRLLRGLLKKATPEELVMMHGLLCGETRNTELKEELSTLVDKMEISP

IP-MS count [1]: 0 | IP-MS count [2]: 0 | IP-MS count [3]: 0 | IP-MS count [4]: 0 | IP-MS count [5]: 0 | IP-MS count [6]: 0 | IP-MS count [7]: 0 | IP-MS count [8]: 22 | IP-MS count [9]: 0 | IP-MS count [10]: 11 | IP-MS count [11]: 0 | IP-MS count [12]: 0 | IP-MS count [13]: 18 | IP-MS count [14]: 0 | IP-MS count [15]: 5
B1: FLAG-TRB1 (other, not shown: small tags and cut ends)
chain: MGAPKQKWTQEEESALKSGVIKHGPGKWRTILKDPEFSGVLYLRSNVDLKDKWRNMSVMANGWGSREKSRLAVKRTFSLPKQEENSLALTNSLQSDEENVDATSGLQVSSNPPPRRPNVRLDSLIMEAIATLKEPGGCNKTTIGAYIEDQYHAPPDFKRLLSTKLKYLTSCGKLVKVKRKYRIPNSTPLSSHRRKGLGVFGGKQRTSSLPSPKTDIDEVNFQTRSQIDTEIARMKSMNVHEAAAVAAQAVAEAEAAMAEAEEAAKEAEAAEAEAEAAQAFAEEASKTLKGRNICKMMIRA
notes: FLAG-tagged TRB1 from its native promoter in the trb1 mutant background; Printed both as TRB-FLAG and FLAG-TRB1; the vector description gives a C-terminal 3xFLAG-BLRP, so the tag position under the label FLAG-TRB1 is not certain; also called TRB1-FLAG; TRB-FLAG

IP-MS count [16]: 78 | IP-MS count [3]: 7 | IP-MS count [5]: 16 | IP-MS count [17]: 4 | IP-MS count [8]: 10 | IP-MS count [10]: 22 | IP-MS count [18]: 3 | IP-MS count [13]: 10 | IP-MS count [15]: 22
B2: FLAG-TRB2 (other, not shown: small tags and cut ends)
chain: MGAPKQKWTPEEEAALKAGVLKHGTGKWRTILSDSEFSLILKSRSNVDLKDKWRNISVTALWGSRKKAKLALKRTPPGTKQDDNNTALTIVALTNDDERAKPTSPGGSGGGSPRTCASKRSITSLDKIIFEAITNLRELRGSDRTSIFLYIEENFKTPPNMKRHVAVRLKHLSSNGTLVKIKHKYRFSSNFIPAGARQKAPQLFLEGNNKKDPTKPEENGANSLTKFRVDGELYMIKGMTAQEAAEAAARAVAEAEFAITEAEQAAKEAERAEAEAEAAQIFAKAAMKALKFRIRNHPW
notes: FLAG-tagged TRB2 from its native promoter; tag position under the label FLAG-TRB2 not certain; also called TRB2-FLAG; TRB-FLAG
